The text below walks through data of paper PMC6420783.

The target in one data set is Ape1WT (Homo sapiens, UniProt P27695 1-318). The data set can be described thus: SPR.
The target of another data set is NPM1 (UniProt P06748 1-294). The data set can be described thus: SPR. In general terms: In SPR one partner is held on a chip, and binding of the other changes the refractive index at the surface.
Sequence of NPM1 (P06748 whole entry): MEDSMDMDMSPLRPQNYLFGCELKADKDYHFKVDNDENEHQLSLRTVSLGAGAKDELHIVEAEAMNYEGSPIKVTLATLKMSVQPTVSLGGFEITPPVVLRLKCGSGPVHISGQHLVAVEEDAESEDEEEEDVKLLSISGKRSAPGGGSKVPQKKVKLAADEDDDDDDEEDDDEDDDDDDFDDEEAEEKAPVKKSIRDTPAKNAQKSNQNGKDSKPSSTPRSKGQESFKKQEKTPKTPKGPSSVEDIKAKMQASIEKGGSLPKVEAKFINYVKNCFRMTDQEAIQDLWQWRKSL

Sequence of Ape1WT (P27695 whole entry): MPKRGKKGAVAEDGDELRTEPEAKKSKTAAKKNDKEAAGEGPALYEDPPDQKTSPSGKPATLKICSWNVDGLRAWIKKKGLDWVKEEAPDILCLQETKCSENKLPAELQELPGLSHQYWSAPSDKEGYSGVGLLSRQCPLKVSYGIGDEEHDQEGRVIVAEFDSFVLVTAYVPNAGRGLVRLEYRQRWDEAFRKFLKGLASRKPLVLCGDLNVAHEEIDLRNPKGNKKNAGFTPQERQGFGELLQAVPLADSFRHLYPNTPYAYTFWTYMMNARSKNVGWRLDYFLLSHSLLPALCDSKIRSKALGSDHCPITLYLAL

Broadly, the Kd is the constant that tells how readily two partners part at equilibrium. A low value points to tighter binding. As for TAGGGTTAGGGTTAGGGTTAGGG (structured_DNA) [Biot-Nat], the Kd came out at 31.6 nM with Ape1WT and 147 nM in the data set with NPM1.
For TTTTTTTTTTTTTTTTTTTTTTT (ssDNA) [Biot-Poly dT], in that order: 170 nM and 255 nM.
